Source: patent US20230357367A1 (GENERATE BIOMEDICINES, published 2023)
Where two headings read alike, the source gives them in different places.

Legend:
Test in all cases: cell-based or functional assay
[1] = target: T1, SARS-CoV-2 Omicron BA.2.12.1 Spike on pseudovirus (SARS-CoV-2)
[2] = target: T2, SARS-CoV-2 Omicron BA.1 Spike on virus particles (SARS-CoV-2)
[3] = target: T3, SARS-CoV-2 Omicron BA.4/5 Spike on pseudovirus (SARS-CoV-2)
[4] = target: T4, SARS-CoV-2 Omicron BA.2 Spike on pseudovirus (SARS-CoV-2)
[5] = target: T5, SARS-CoV-2 Delta Spike on virus particles (SARS-CoV-2)
[6] = target: SARS-CoV-2 D614G Spike on pseudovirus (SARS-CoV-2, UniProt P0DTC2 14-1273)
[7] = target: T2, SARS-CoV-2 Omicron BA.1 Spike on virus …; remark: listed apart in the source
[8] = target: T5, SARS-CoV-2 Delta Spike on virus …; remark: listed apart in the source
[9] = target: T3, SARS-CoV-2 Omicron BA.4/5 Spike on …; remark: listed apart in the source
[10] = target: T4, SARS-CoV-2 Omicron BA.2 Spike on …; remark: listed apart in the source
[11] = target: T5, SARS-CoV-2 Delta Spike on virus …; remark: listed apart in the source
[12] = target: T1, SARS-CoV-2 Omicron BA.2.12.1 Spike on …; remark: listed apart in the source
[13] = target: T2, SARS-CoV-2 Omicron BA.1 Spike on virus …; remark: listed apart in the source
[14] = target: T3, SARS-CoV-2 Omicron BA.4/5 Spike on …; remark: listed apart in the source
[15] = target: T4, SARS-CoV-2 Omicron BA.2 Spike on …; remark: listed apart in the source
[16] = target: T5, SARS-CoV-2 Delta Spike on virus …; remark: listed apart in the source
[17] = target: T3, SARS-CoV-2 Omicron BA.4/5 Spike on …; remark: listed apart in the source
[18] = target: SARS-CoV-2 Omicron BA.4/5+K444T Spike on pseudovirus (SARS-CoV-2)
[19] = target: T1, SARS-CoV-2 Omicron BA.2.12.1 Spike on …; remark: listed apart in the source

Row | Binder | IC50, pseudovirus neutralization [1] [µg/mL] | IC50, pseudovirus neutralization [2] [µg/mL] | IC50, pseudovirus neutralization [3] [µg/mL] | IC50, pseudovirus neutralization [4] [µg/mL] | IC50, pseudovirus neutralization [5] [µg/mL] | EC50, pseudovirus neutralization on TMPRSS2-Vero E6 cells [6] [µg/mL] | IC50, live virus neutralization [7] [µg/mL] | IC50, live virus neutralization [8] [µg/mL] | IC50, pseudovirus neutralization [9] [µg/mL] | IC50, pseudovirus neutralization [10] [µg/mL] | IC50, pseudovirus neutralization [11] [µg/mL] | % neutralization at 4.5 µg/ml, pseudovirus [12] [%] | % neutralization at 4.5 µg/ml, pseudovirus [13] [%] | % neutralization at 4.5 µg/ml, pseudovirus [14] [%] | % neutralization at 4.5 µg/ml, pseudovirus [15] [%] | % neutralization at 4.5 µg/ml, pseudovirus [16] [%] | Neutralization - IC50, pseudovirus [17] [µg/mL] | Neutralization - IC50, pseudovirus [18] [µg/mL] | IC50, pseudovirus neutralization [19] [µg/mL]
1 | AB-1 (antibody, V domains shown) VH: EVQLVESGAEVKKPGESLKISCKGSGYTFTRYWIGWVRQMPGKGLEWMGIIYPGDSDVRYSPSFQGHVTISADKSISTAYLQWNSLKASDTAMYYCARLPQYCSKGVCYRWFDPWGQGTLVTVSS VL: EIVLTQSPSSVSASVGDRVTITCRASQGISSWLAWYQQKPGKAPKLLIYAASSLQSGVPSRFSGSGSGTDFTLTISSLQPEDFATYYCQQGHSFPYTFGQGTNLEIK | 0.0133 | 0.0088 | 0.0278 | 0.0219 | 0.0139 | 0.013 | 0.119 | 0.236 | 0.075 | 0.031 | 0.034 | 89.2 | 96.5 | 90.4 | 89.9 | 99.5 | 0.0101 | 0.0094 | –
2 | Reference Antibody (antibody, V domains shown) VH: EVQLVESGAEVKKPGESLKISCKGSGYTFTRYWIGWVRQMPGKGLEWMGIIYPGDSDTRYSPSFQGHVTISADKSISTAYLQWNSLKASDTAMYYCARLPQYCSNGVCQRWFDPWGQGTLVTVSS VL: EIVLTQSPSSVSASVGDRVTITCRASQGISSWLAWYQQKPGKAPKLLIYAASSLQSGVPSRFSGSGSGTDFTLTISSLQPEDFATYYCQQGNSFPYTFGQGTNLEIK | 0.0307 | 0.0261 | 0.0314 | 0.0941 | 0.0681 | – | 0.528 | 7.45 | 0.634 | 1.25 | 0.256 | – | 91.9 | 74.4 | 74.5 | 93.9 | – | – | 0.337
